According to PMC4815018, “Oligomerization as a strategy for cold adaptation: Structure and dynamics of the GH1 β-glucosidase from Exiguobacterium antarcticum B7” (Scientific Reports, 2016):

Tests used:
[1] = biological target: T1, EaBglA (Exiguobacterium antarcticum, UniProt A0ABF7PFW8); assay: colorimetric release of 4-nitrophenol at […] nm; assay type: biochemical; conditions: 0.5 mM pNPG, 20 nM enzyme, 40 mM sodium phosphate pH 7.0, 30 °C, 10 min; tetramer
T1 construct: gene bglA

[2] = biological target: GH1 β-glucosidase from Exiguobacterium antarcticum B7 (Exiguobacterium antarcticum B7); assay: SEC; Superdex 75 16/60, 20 mM sodium phosphate, 150 mM NaCl, pH 7.5, 0.5 mL/min; two peaks (tetramers and monomers); samples at 4 mg/mL
[3] = biological target: GH1 β-glucosidase from Exiguobacterium antarcticum B7 (Exiguobacterium antarcticum B7); assay: crystal structure; two crystal forms, P2(1) (0.1 M TRIS pH 8.5, 2% PEG400, 1.45 M lithium sulfate) and C222(1) (0.1 M CAPS pH 10.5, 0.2 M lithium sulfate, 2 M ammonium sulfate, in situ proteolysis with trypsin); 18 °C, protein at 15 mg/mL
[4] = biological target: GH1 β-glucosidase from Exiguobacterium antarcticum B7 (Exiguobacterium antarcticum B7); assay: SAXS; 1 and 2 mg/mL in 20 mM sodium phosphate, 150 mM NaCl, pH 7.4, 20 °C; experimental curve and ab initio model compared with the crystallographic tetramer
[5] = biological target: GH1 β-glucosidase from Exiguobacterium antarcticum B7 (Exiguobacterium antarcticum B7); assay: AUC; sedimentation velocity, 35,000 rpm, 20 °C, 0.2, 0.4 and 1 mg/mL in 20 mM sodium phosphate, 150 mM NaCl, pH 7.4
[6] = biological target: GH1 β-glucosidase from Exiguobacterium antarcticum B7 (Exiguobacterium antarcticum B7)

T1 sequence (A0ABF7PFW8 entry or part of it): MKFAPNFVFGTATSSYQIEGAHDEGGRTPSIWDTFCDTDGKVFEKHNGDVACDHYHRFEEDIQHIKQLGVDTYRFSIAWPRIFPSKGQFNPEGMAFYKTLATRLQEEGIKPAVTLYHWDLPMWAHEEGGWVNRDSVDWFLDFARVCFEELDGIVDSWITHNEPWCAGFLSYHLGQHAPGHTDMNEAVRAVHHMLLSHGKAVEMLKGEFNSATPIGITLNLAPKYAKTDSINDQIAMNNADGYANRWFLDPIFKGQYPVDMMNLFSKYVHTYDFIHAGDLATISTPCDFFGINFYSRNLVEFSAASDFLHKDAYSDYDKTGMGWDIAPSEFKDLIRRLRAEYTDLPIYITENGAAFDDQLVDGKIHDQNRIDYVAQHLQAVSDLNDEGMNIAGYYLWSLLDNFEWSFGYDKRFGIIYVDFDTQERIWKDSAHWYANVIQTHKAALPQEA

| stoichiometry N [2] | stoichiometry N [3] | stoichiometry N [4] | stoichiometry N [5] | relative enzyme activity on pNPG (30 °C, pH 7.0, 20 nM enzyme) of the monomer fraction against the tetramer fraction [6] [fold] | Compound | relative activity (%) [1] |
| --- | --- | --- | --- | --- | --- | --- |
| – | – | – | – | – | O=[N+]([O-])c1ccc(O[C@@H]2O[C@H](CO)[C@@H](O)[C@H](O)[C@H]2O)cc1 [4-nitrophenyl β-D-glucopyranoside] | Enzyme activity was measured using the colorimetric substrate 4-nitrophenyl β-D-glucopyranoside (pNPG |
| 4 | 4 | 4 | 4 | 10 | GH1 β-glucosidase from Exiguobacterium antarcticum B7 (enzyme) | – |
